For this test, the target named is T1, biotinylated recombinant dimeric ErbB2 ECD-Fc fusion protein (Homo sapiens, UniProt P04626, biotin (EZ-Link NHS-PEG4-Biotin labeling kit)).
T1 construct: ErbB2, extracellular domain (ECD); Cloned in the mammalian expression vector pSectag 2A; also called Bio-ECD; source: Expi293, transiently expressed, purified on Protein A, then biotinylated
In words: SPR; Biacore 3000, 25°C; Bio-ECD (1 μg/ml in PBS) immobilised on SA sensor chip at about 300 RU; antibodies 10 μg/ml in PBS flowed at 30 μl/min, 15 min dissociation; regeneration 50 mM NaOH; triplicate. Conditions: both partners purified. A general note: In SPR one partner is held on a chip, and binding of the other changes the refractive index at the surface.

This passage reports Kd, koff and kon results from PMC4457833, “Effective Optimization of Antibody Affinity by Phage Display Integrated with High-Throughput DNA Synthesis and Sequencing Technologies” (PLoS ONE, 2015).

A word on the Kd: it is the equilibrium constant for the complex coming apart. Usually koff stands for the first-order rate constant of dissociation. For orientation: kon means the second-order rate constant of association.

B1: HuA21 scFv-Fc fusion antibody (humanized anti-ErbB2 antibody HuA21, wild type) (scFv, V domains shown)
VH: QVQLVQSGAEVVKPGASVKISCKASGYSFTGYFINWVKQNPGQRLEWIGHISSSYATSTYNQKFKGKATLTVDTSASTAYMELSSLRSEDTAVYYCVRSGNYEEYAMDYWGQGTLVTVSS
VL: DIVLTQSPDSLAVSLGERVTINCKSSQTLLYSNNQKNYLAWYQQKPGQSPKLLISWAFTRKSGVPDRFSGSGSGTDFTLTISSVQAEDVAVYYCQQYSNYPWTFGAGTKLEIK
notes: the HuA21 scFv gene is deposited in GenBank under KP749832; also called HuA21 (wt); wild-type HuA21; source: Expi293, transfected; conditioned medium (screening ELISA); purified by Protein A and Superdex G200 size-exclusion chromatography (SPR)
Consider B1, for which the Kd is 4.03 nM, the koff came to 0.000262 s⁻¹ and the kon is 65000 M⁻¹ s⁻¹.
